{"source": "the DeepSol protein solubility set", "experiment": "soluble on expression in E. coli; label from the status in PepcDB or PDB records"}
{"sequence": "MEGLTPEMQREAEALRREWETNPRWKGVRRDYRPEDVVRLRPSVMVEYTLAKRGAEKLWKLLHERPYVHTFGAYTGAMAVEMVRAGLEAIYLSGWQVAADANLAWQTYPDQSLYPYNSVPQIVKRINNALMRADQVERIEGRVTRDWYVPIVADAEAGFGGALNVFELTKAMIEAGAAGIHYEDQLASEKKCGHLGGKVLVPTGQHIRTLQAARLAADVMGVPTVIIARTDAEAATLITSDIDERDKPFILPDERTPEGFYRFKNGIEAGIARALAYAPYADVIWMETSKPDLEEARKFAEAVKKEFPDKLLAYNLSPSFNWKKFLDDETIAKFNRELGEMGYKFQFITLAGWHALNYYIWELAKGYKERGMPAFVELQQKEFAAQKEGFTAVKHQREVGAGYFDEVVLALTQGQASTLALKGSTEEAQFNEPVH", "values": [{"measurement": "soluble on expression in E. coli", "value": "soluble"}]}
{"sequence": "MKRMLASLLGTAIALGSGLALAAEADLQALEQAARKEGQVNSVGMPDSWANWKDTWKDLESKYGLKHMDTDMSSAQELAKFKAEKDNASADIGDVGAAFGPIAVQQGVSQPYKPSTWEQIPAWAKDQDGHWALAYTGTIAFIVNKQLVKDVPHSWADLLQGKYKVTIGDVSAAAQAVNGVLAAAIANGGDEKNIKPGLEFFGKIAKQGRLSLTNPVIATLEKGEVEVGIVWDFNGLSYRQQIDPERFEVLIPSDGSVISGYTTIINKYAKHPNAAKLAREYIFSDAGQINLAKGNARPIRAESLTLPDDVKAQLLPNEQYAKAQPIKDAKAWEETSKRLPRQWQEAVIINMQ", "values": [{"measurement": "soluble on expression in E. coli", "value": "not soluble"}]}
{"sequence": "MSLIKGKELLGRPVVAVSNGAQVDNVHDVVFDHQGNRVLALLVEEGGWLRAAKAVPFGRVQSIGEKAVMIATPEDVVNTGRDPVLKEALAGKTNLIGMTLLTTDGQTLGKITDVYFDERSGQVEGYEASGGLFADMTNGRTFIPAPQSIQIGKDSAIVPAGVAAAMREQAPGGIRGAFHTAGKSLGGAVQGAADSVRGAYEDTSRSVRENYEQVSANVAEAAREGQQQARAAASDLRSRVQGGAEDLREASAERQKDFVVGKVAGQDVRTDNGVLIVAKGTTIDEGQARFAEQNGALPALLAAAAGGSVREGVRDLLADPSSDAGDVVGRRVQEDVRSSVGSLIAVQGQIVTPEVAERARELGLEERLVAATQAPGLQTPPVPDRAELREQASDLRDNLADGLSNVSQNVSQGANELLGRAKSWLGERREDLEDSLDRQEQEAYQARIRDALGRPVTRAVLTRTDRVILQPGELVTHAALDEARAAGVLGLLLDSVDGGEGHHHHHH", "values": [{"measurement": "soluble on expression in E. coli", "value": "soluble"}]}
{"sequence": "MIFNVRGENLEVTPALREYVEKKVGKLERYFDTTPVADVNVRMQVLNNLHIIEVTIPMSRLLLRAEEKHSDMYAAIDLVIEKLERQIRKHKTKVNRKFRQEGSLKYMFKNDLEPMDGMREEILLEEEDDLQVVRKKRFNLKPMDTEEAILQMDMLGHNFFVFSNAISGDTNVVYRRKDGKYGLIEPELEHHHHHH", "values": [{"measurement": "soluble on expression in E. coli", "value": "soluble"}]}
{"sequence": "MANDIVPQDENGAGMPVEFDASTITGEEKAAILLLSLNEQDAAGIIRHLEPKQVQRVGSAMARAKDLSQEKVSAVHRTFLEDIQKYTNIGMGSEDFMRNALVAALGEDKANNLVDQILLGTGSKGLDSLKWM", "values": [{"measurement": "soluble on expression in E. coli", "value": "not soluble"}]}
{"sequence": "MAHHHHHHMLKKGFTATKIIGKRCFQWWDNLNTSWKFAIGFSVLFPPLWNYNERRKAREKQVYYNKSIKDYVFFDIAIENKYVGRVLIGLYSDQVPLSVENFIQLAEGYKVKDKYIGYRNTFIHKIYPGIGLVGGNVLNDKEGLSIYGKKFPDENFDMEFVQDGDVALFNEGPHSNSSQFIITFSPMPILHKHNVVIGTVLKGMDIIRMIENVGTKLGNPMYNVKIINCGLYRSLEQDGPPFFNMLHISDKGNKNIISKKEFENLSEQQRQSLMEEIGKSEKQR", "values": [{"measurement": "soluble on expression in E. coli", "value": "not soluble"}]}
{"sequence": "MYCPFCHNDQSRVIDSRVIDSGSAIRRRRECTQCKNRFTTVEKAQLLVVKRNGLTEPFSREKVIVGVRRACQGRDVSDDALKRLAQQVEERVRLHGSSQIHANEIGLAILEPLRELDEVAYLRFASVYKSFESADDFESEIRLMRRRDRSN", "values": [{"measurement": "soluble on expression in E. coli", "value": "not soluble"}]}
{"sequence": "MGSDKIHHHHHHMSEDLLNSFQEAYSNLELFPLMERNEMERFRVEYGDDLIADLNQLVEDSPNGDGKIVFTGHRGCGKSTLLAEFSRQIQDKYFVVLFSIADKIEMSAVNHINILFAIAVNLMTEAEARKVDIPQSTKEALYKWFATRTRTEESNLQAEVSIGFDLLKLISSKLKADASVRDEIKQEFERKLSDLVARINEIAALIQAATKQNVLVIIDDLDKLDLGRVNEIYRDNIKALCQPNFQIIYTIPIAVLRETFISTIIATETNDQVVAMPVLKIFDKGKNRFPNAQPRREATKILGEVLQKRIPNELIAAETAEKIVIYSGGVLRELIRISKECCRICLRTIRRNPSAEVIIDDKILLQAINKIRNDFSIRLGKTDIDILQSVYEQFMPNDPKQAEFLDLLHGLYVLEYRTDETWYDVHPIIIESLKRQGAINVK", "values": [{"measurement": "soluble on expression in E. coli", "value": "not soluble"}]}
{"sequence": "TNTEQFCTGCHEMRDNVYAELKGTIHYTNRSGVRAICSDCHVPHNWTDKIARKTQASKEVWGKIFGTINTREKFVEKRLELAQHEWARLKANDSLECRNCHNYESMDFTRQSMRAQNMHSTYLADKSKTCIDCHKGIAHTLPRMPPDQTSLAPPAAGPARADTGHAER", "values": [{"measurement": "soluble on expression in E. coli", "value": "not soluble"}]}
{"sequence": "MFSIIIPIYNSENYLRYSIESVLNQSIGFKENIELILIDDGSVDSSPQICESFKNLYPNNIKIMKIENSGPSAARNCGLSNVSERSKFIGFLDSDDAFSQNALQSVYDFFCDSEHVNIAVLPVYYTGEKEGGHKLNNRFEKGTRVINILNDYKAIHFYIGGTFYRRHTLTSTVLFDESIKFWEDAIFFNQLLLKEKRYGAVAEGKYFYRKRKEQDSLVDRSWFNKKRYTYLLNECYMTLLMDSFNKYDIVLPYLQFLIVYHIKLFLYPNYRDVYKSVLDQQEQRVFVDDFIKVLKFIDPQFIKEQDMPMYYKEFMFHLLKENTEALENIKKERVLHSSCTVTSAKIKGLRLELTGHFINQYYEMKENDRIYIKYFKRLKKCKRKELKKTIEVWGYKLRDFRYAGFVVEIPIWAFAFDFVLKTPNDSLELNHVNIFKSLLTRVFKKRLEHHHHHH", "values": [{"measurement": "soluble on expression in E. coli", "value": "soluble"}]}
{"sequence": "MATQGAWLRMTSSAKSMTKSTVTSKELGFLTSQLSGLRISYTPSDVINRISLPSFPGIQPIVARRICPFTGKKANRANKVSFSNHKTKKLQFVNLQYKRVWWEAGKRFVKLRLSTKALKTIEKNGLDAVAKKAGIDLRKKLEHHHHHH", "values": [{"measurement": "soluble on expression in E. coli", "value": "not soluble"}]}
{"sequence": "MGSDKIHHHHHHMTDKMQSLALAPVGNLDSYIRAANAWPMLSADEERALAEKLHYHGDLEAAKTLILSHLRFVVHIARNYAGYGLPQADLIQEGNIGLMKAVRRFNPEVGVRLVSFAVHWIKAEIHEYVLRNWRIVKVATTKAQRKLFFNLRKTKQRLGWFNQDEVEMVARELGVTSKDVREMESRMAAQDMTFDLSSDDDSDSQPMAPVLYLQDKSSNFADGIEDDNWEEQAANRLTDAMQGLDERSQDIIRARWLDEDNKSTLQELADRYGVSAERVRQLEKNAMKKLRAAIEA", "values": [{"measurement": "soluble on expression in E. coli", "value": "not soluble"}]}
{"sequence": "MGSDKIHHHHHHMNINSETKYCQTCGIPLDIDYTNLKADQNEEYCDYCLKNGVKLYDFSMDYLIYLWGLFPEEYYKEVGIRHTSSELREIMSRRLPEIKRWKQKINTAHIQYELVIRVQEYINCHLFDDLDSEKLSQIVCISKYHFRRLFKAVCGDSLGNYIQRLRLEYIAFKLISTNVSVSEILSQINYQNKHTLSRAFKNYFNCSIPEFRKRHSNACSEGKNPIQIEPSIERVPHTRIAYLKLERTHHVSHSFSVLWKQVLQFSESYGLLSKGCKYVSLTLDYPFITLEEQSRFMVGVTLPQSFKIPKGFGVYEVPAGEYAIFRFKGLYHELNRVYRYIYLDWLPANDYSLREPFTFETYINTPEKTPVSELITDIYIPVKKKEI", "values": [{"measurement": "soluble on expression in E. coli", "value": "not soluble"}]}
{"sequence": "MGHHHHHHSHRKRPLLAPLCNGLINSYEDKSNDFVCPICFDMIEEAYMTKCGHSFCYKCIHQSLEDNNRCPKCNYVVDNIDHLYPNFLVNELILKQKQRFEEKRFKLDHSVSSTNGHRWQIFQDWLGTDQDNLDLANVNLMLELLVQKKKQLEAESHAAQLQILMEFLKVARRNKREQLEQIQKELSVLEEDIKRVEEMSGLYSPVSED", "values": [{"measurement": "soluble on expression in E. coli", "value": "not soluble"}]}
{"sequence": "MGSDKIHHHHHHMISMKEEIKKVIEETGLPIITDEKSGAAQWVDLRELRLSYIISVENIKPFYEGLKEGKLLGTKCKKCGRLFFPPQKDCPSCFDSDIEWVELKNEGTLETMTVVFVRPPSFSAYDPYPVAIAKLDDGPRILAWYKGDPQQAKPGMRVKIQVGKRKEGYLMYEIAPA", "values": [{"measurement": "soluble on expression in E. coli", "value": "not soluble"}]}
{"sequence": "MSHGSGLVRTTCSSGGALGPAQPSEGLLDRVYPLTHGALFKVAQMGYRLLVAGFQNCRGIDIY", "values": [{"measurement": "soluble on expression in E. coli", "value": "not soluble"}]}
{"sequence": "MGHHHHHHSHMVTMEELREMDCSVLKRLMNRDENGGGAGGSGSHGTLGLPSGGKCLLLDCRPFLAHSAGYILGSVNVRCNTIVRRRAKGSVSLEQILPAEEEVRARLRSGLYSAVIVYDERSPRAESLREDSTVSLVVQALRRNAERTDICLLKGGYERFSSEYPEFCSKTKALAAIP", "values": [{"measurement": "soluble on expression in E. coli", "value": "not soluble"}]}
{"sequence": "AHHHHHHGSTWREILRKEGFLDLGEFIVELVYIDCPCEPIPPTLAIYDKKGDEWYKVEEAPNVQNYREAVEWAIEVLERIRDGENVKLVSLDGPAPPKVMKRLSLALQKLTE", "values": [{"measurement": "soluble on expression in E. coli", "value": "not soluble"}]}
{"sequence": "MSLDLDRKLIEILDILSKSKEPVGAKIIAKELNKRGYKIGERAVRYHLKLLDGMKLTKKVGYAGRVITERGLEELEKANISYRLGSIYSNILEKTISANYRFGYVVINRCQVYADFNDVLKIIKSVYESGLAVGDRVGIIDREKFVEINTLCSLNFDNILLQNGIFPLHVCAGVVKYEDGKPVEFKEIIDYKSTSIDPLRAFIEKKETDVMGIIENGEGYLPANFRYFGVEFLERFETILEIDELKCIISYGTENVLGLDVGDDKVGVALIGGLTPIAPFVENNYCVEICPMSSIVRLESLHKLKKNPRDIVTKKANIRIKTALSKMFNAMAKVTYDIDEADGDVIVNTAFIDKKYLDEAFDILKEAYKKGLGISDRFGIVEENDRIKIQTICAVTLDGIFLRNSVPLIPKYGGILEITEDKERFIDIIGYDGSSLDPHEVFFNFVDCEKTFLAGFREVHRVAREKLEEVLKKLNWNGIKAIGEPNNELYGIGVNKDMCGVVTMGGINPLVLLKENEIPIELKAMHEVVRFSDLKSYKEIEGHHHHHH", "values": [{"measurement": "soluble on expression in E. coli", "value": "not soluble"}]}
{"sequence": "MSYYHHHHHHNYNIPTTENLYFQGAMVAPAGEQGRSSTALSDNPFDAKAWRLVDGFDDLTDITYHRHVDDATVRVAFNRPEVRNAFRPHTVDELYRVLDHARMSPDVGVVLLTGNGPSPKDGGWAFCSGGDQRIRGRSGYQYASGDTADTVDVARAGRLHILEVQRLIRFMPKVVICLVNGWAAGGGHSLHVVCDLTLASREYARFKQTDADVGSFDGGYGSAYLARQVGQKFAREIFFLGRTYTAEQMHQMGAVNAVAEHAELETVGLQWAAEINAKSPQAQRMLKFAFNLLDDGLVGQQLFAGEATRLAYMTDEAVEGRDAFLQKRPPDWSPFPRYF", "values": [{"measurement": "soluble on expression in E. coli", "value": "soluble"}]}
{"sequence": "MTKAETSIGVFYVSEYGYSDRLAQAIINGITKTGVGVDVVDLGAAVDLQELRELVGRCTGLVIGMSPAASAASIQGALSTILGSVNEKQAVGIFETGGGDDEPIDPLLSKFRNLGLTTAFPAIRIKQTPTENTYKLCEEAGTDLGQWVTRDRSIKAMKSLGLEHHHHHH", "values": [{"measurement": "soluble on expression in E. coli", "value": "soluble"}]}
{"sequence": "MIKTAQSVGELTRAIKNELESLFPFVRVKGELSNVKQHSSGHVYLTLKDSEAQIPAVIWKSVRARSPLELRDGLEVIAEGRLEVWPPAGRYQLICTALFETGEGEQRLALERLIAKLAKAGWFDAERKKPIPRIPRRIGMITSPTGAVIRDMSDVFARRFPAAELLLYPVQVQGERAVESIVRALRYFNDPPKPEHKPDVLIVARGGGSSEDLQAFNDEAVAEAIYRSAIPVISAVGHETDLSVADMVADLRAGTPSIAAERAVPDREELLRLIDNLVNRQSILMEGLISGAQLQVDSITSSYAFNRPVQMLGQFEERLALMEKEMKRAIAEKVRDREQQLTAAADRLAMLDINRTLKRGFALVTQDDRYVTSAKSLEADAKIGLTFHDGQREARVTE", "values": [{"measurement": "soluble on expression in E. coli", "value": "not soluble"}]}
